Measured values taken from article PMC11336063.

Biological target: N-terminal domain of eIF2α (eIF2α-NTD), amino acids 2–187 (UniProt P05198)
Sequence of UniProt P05198 (P05198 2-187): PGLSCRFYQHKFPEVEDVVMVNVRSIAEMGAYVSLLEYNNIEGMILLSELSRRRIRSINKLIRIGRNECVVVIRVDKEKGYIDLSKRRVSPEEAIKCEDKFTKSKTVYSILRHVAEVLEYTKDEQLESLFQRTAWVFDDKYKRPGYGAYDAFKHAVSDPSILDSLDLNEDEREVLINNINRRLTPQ

Row | eIF2α-S51 phosphorylation of eIF2α-NTD (1 μM) by immunopurified GCN2 variant in the in vitro kinase assay, percent [%] | Substance
1 | 12.9 | human GCN2 P1115L variant, 3xFLAG tagged (from UniProt Q9P2K8 1-1649) (enzyme)
2 | 27.2 | human GCN2 G1109R variant, 3xFLAG tagged (from UniProt Q9P2K8 1-1649) (enzyme)
